Consider 3 molecules from patent US7485710B2, “Nucleic acids coding for adhesion factor of group B streptococcus, adhesion factors of group B streptococcus and further uses thereof” (priority 2002, dated 2009).

The star is where a group is joined. Biotin = O=C1N[C@H]2[C@H](CS[C@H]2CCCCC(=O)*)N1; Ahx = NCCCCCC(=O)O

In experiment [1] the test system is IgG and IgA antibodies in sera from patients infected with GBS. Kind of experiment: Peptide ELISA of FbsA peptides with human sera. The class given is binding. The conditions noted are these: five sera, dilutions 1:200 and 1:1,000. The text has this:
The 5 biotinylated peptides (wild type <1>: GNVLERRQRDAENRSQ SEQ ID No. 113; alanine mutant peptides: <2> GAVLERRQRDAENRSQ SEQ ID No. 207, <3> GNALERRQRDAENRSQ SEQ ID No. 208, <4> GNVLEARQRDAENRSQ SEQ ID No. 211, <5> GNVLERAQRDAENRSQ SEQ ID No. 212; see also FIG. 11) were coated on Streptavidin-coated ELISA plates and analysed using 5 sera from patients infected with GBS. The patient sera were applied in a dilution of 1:200 and 1:1,000. IgG (A) and IgA (B) antibodies were detected with secondary anti-human antibodies coupled to Horse Radish Peroxidase and ABTS as substrate.
Biotin-labeled peptides were coating on Streptavidin ELISA plates (EXICON) at 10 μg/ml concentration according to the manufacturer's instructions. Sera were tested at two dilutions, 200× and 1,000×.
Highly specific Horse Radish Peroxidase (HRP)-conjugated anti-human IgG or anti-human IgA secondary antibodies (Southern Biotech) were used according to the manufacturers' recommendations (dilution: 1,000×). Antigen-antibody complexes were quantified by measuring the conversion of the substrate (ABTS) to colored product based on OD405nm readings in an automated ELISA reader (TECAN SUNRISE). Following manual coating, peptide plates were processed and analyzed by the Gemini 160 ELISA robot (TECAN) with a built-in reader (GENIOS, TECAN).
For orientation: In an ELISA, binding on a coated surface is turned into a signal by an enzyme label.

The test system of experiment [2] is A549 cells. Kind of experiment: Epithelial cell adherence and internalization assay of GBS 6313 in presence of proteins. Format: cell-based, human. To be noted: pre-treatment of A549 cells with increasing amounts of protein. The protocol: The adherence of GBS 6313 to A549 cells (A) and its internalization into these cells (B) was arbitrarily set to 100% and the results obtained in the presence of the different fusion proteins was related to these values. Each experiment was performed at least three times in triplicate.
Adherence of GBS to epithelial cells and internalization into epithelial cells was assayed essentially as described previously (Caparon et al., 1991; Rubens et al. 1992). Briefly, A549 cells were transferred to 24-well tissue culture plates at approximately 4×10^5 cells per well and cultivated overnight in RPMI (Gibco BRL) tissue culture medium, supplemented with 10% of fetal calf serum. After replacement of the medium with 1 ml of fresh medium, the cells were infected with 5×10^6 streptococci per well and incubated at 37° C. for 2 h. The non-adherent bacteria were removed by washing three times with PBS. In adherence assays, the epithelial cells were subsequently detached from the well by the addition of trypsin/EDTA and lysed by adding 300 μl of distilled water. Adherent bacteria were quantitated by plating serial dilutions of the lysate onto THY agar plates. For internalization assays the epithelial cells were incubated after 2 h of infection for another 2 h in tissue culture medium supplemented with penicilling G (10 U) and streptomycin (0.01 mg) to kill extracellular bacteria. After three washes with PBS, the epithelial cells were detached by the addition of trypsin/EDTA and lysed in 300 μl of distilled water. The amount of intracellular bacteria was quantified by plating serial dilutions of the lysate onto THY agar plates. Each experiment was repeated at least three times in triplicate. […]
Adherence of S. agalactiae to A549 and HEL299 cells and internalization into these cells was assayed essentially as described in Example 1 for A549 cells. In some experiments, A549 cells were preincubated with different amounts of FbsA protein or FbsA-derived peptides in RPMI medium for 30 min with three subsequent washes with PBS.

Experiment [3] deals with A549 cells. Kind of experiment: Interaction of protein-coated latex beads with A549 cells (scanning electron microscopy). Format: cell-based, human. How it is done: BSA-coated latex beads were used as a control.
Latex beads were either coated with BSA (A) or FbsA fusion protein (B-D) and the interaction of the coated beads with the lung epithelial cell line A549 was analyzed by scanning electron microscopy.
Approximately […] latex beads (3 μm diameter, Sigma) were washed tree times in PBS and then coated with 300 μg of fusion protein or BSA in 500 μl PBS overnight at 4° C. Coated beads were washed once in PBS and then blocked with 200 μl of 10 mg/ml BSA in PBS for 1 h at room temperature. Beads were washed twice in PBS and once in RPMI+10% FCS and then resupended in 1 ml of RPMI+10% FCS. 300 μl of beads were added to approximately 4×10^5 A549 cells in 24-well plates. The cells were incubated for 1 h at 37° C. (5% CO2), washed five times with PBS and fixed in a solution containing 3% glutaraldehyde and 5% formaldehyde in cacodylate bluffer for 45 min on ice. The samples were washed with cacodylate buffer, dehydrated in a graded series of acetone and subjected to critical point drying with CO2. Samples were then coated with a 10 nm thick gold film and examined by scanning electron microscopy as described previously (Reinscheid et al., 2001a).
Approximately 1×10^9 latex beads (3 μm diameter, Sigma) were washed three times in 25 mM 2-N-morpholinoethanesulfonic acid (MES), pH 6.8. One half was resuspended in 1.0 ml MES buffer containing 500 μg/ml FbsA fusion protein and the remaining half was resuspended in 1.0 ml MES buffer. The beads were incubated overnight at 4° C. with end-over-end rotation. After pelleting of the beads by centrifugation, the amount of remaining protein in the supernatant was determined with a Bradford protein assay kit (BioRad). The beads were washed once with MES buffer and blocked for 1 h with 10 mg/ml BSA in MES buffer at room temperature. The beads were washed twice with MES buffer, once with RPMI+10% FCS, and resuspended in RPMI+10% FCS. Confluent A549 cells in 24-well plates were inoculated with 2×10^8 beads per well in a total volume of 1.0 ml. The bead monolayer mixtures were incubated for 2 h at 37° C. in a 5% CO2 atmosphere. Cells were washed five times with PBS and fixed with 3% paraformaldehyde and 4% glutaraldehyde in […] cacodylate buffer for scanning electron microscopy. Scanning electron microscopy was performed with a Zeiss DSM 962 microscope.

A further experiment has as its system GBS 6313. Kind of experiment: Competitive inhibition of 125I-labelled fibrinogen binding to GBS. Also on record: species or system Streptococcus agalactiae. The conditions noted are these: increasing concentrations of purified fusion protein. The protocol:
FbsA-9 differs from FbsA-19 in that it contains only 9 repeats in its repeat domain. The binding assay was performed with ^125I-labelled fibrinogen in the presence of different concentrations of each fusion protein. Each experiment was performed at least in triplicate.
Each experiment was performed at least in triplicate.
Purified human fibrinogen was radiolabelled with ^125I, using the chloramin T method (Hunter and Greenwood, 1962). Binding of labelled fibrinogen to GBS was performed essentially as described by Chhatwal et al. (Chhatwal, Muller, and Blobel, 1983). Briefly, overnight cultures of GBS were pelleted by centrifugation, washed twice with phosphate-buffered saline supplemented with 0.02% Tween 20 (PBST) and adjusted photometrically to a transmission of 10% at 600 nm. A total of 0.2 ml of the bacterial suspension was added to 20 μl of ^125I-labelled fibrinogen containing 23 ng of fibrinogen. After incubation for 1 h at room temperature, the streptococci were sedimented by centrifugation and washed with 1 ml of PBST. The radioactivity of the pellet was finally measured in a gamma counter (Packard Instruments). The amount of bacterial-bound fibrinogen was calculated as the percentage of total radiolabelled fibrinogen added to the bacteria. In inhibition experiments, the binding of 23 ng of radiolabelled fibrinogen to 0.2 ml of GBS (T=10%) was determined in the presence of various amounts of FbsA fusion proteins, Bsp fusion protein or synthetic peptides. Each experiment was repeated at least three times in triplicate.

The target in a further experiment is T1, human fibrinogen (Homo sapiens, UniProt P02671+P02675+P02679).
T1 construct: purchased Sigma-Aldrich
T1 sequence (P02675 31-491): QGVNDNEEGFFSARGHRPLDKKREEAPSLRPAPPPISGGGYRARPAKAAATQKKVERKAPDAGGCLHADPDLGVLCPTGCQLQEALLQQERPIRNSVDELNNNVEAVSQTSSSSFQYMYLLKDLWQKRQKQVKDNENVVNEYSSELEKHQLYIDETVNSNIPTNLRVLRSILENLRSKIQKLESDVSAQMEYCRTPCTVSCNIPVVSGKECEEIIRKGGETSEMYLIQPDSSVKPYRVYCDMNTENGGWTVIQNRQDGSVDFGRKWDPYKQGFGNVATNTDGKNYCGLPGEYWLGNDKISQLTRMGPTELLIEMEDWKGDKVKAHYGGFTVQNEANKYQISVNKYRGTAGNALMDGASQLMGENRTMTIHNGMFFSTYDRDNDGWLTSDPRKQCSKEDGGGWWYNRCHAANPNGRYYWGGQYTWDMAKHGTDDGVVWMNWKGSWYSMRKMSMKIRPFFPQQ
T1 sequence (P02679 27-433): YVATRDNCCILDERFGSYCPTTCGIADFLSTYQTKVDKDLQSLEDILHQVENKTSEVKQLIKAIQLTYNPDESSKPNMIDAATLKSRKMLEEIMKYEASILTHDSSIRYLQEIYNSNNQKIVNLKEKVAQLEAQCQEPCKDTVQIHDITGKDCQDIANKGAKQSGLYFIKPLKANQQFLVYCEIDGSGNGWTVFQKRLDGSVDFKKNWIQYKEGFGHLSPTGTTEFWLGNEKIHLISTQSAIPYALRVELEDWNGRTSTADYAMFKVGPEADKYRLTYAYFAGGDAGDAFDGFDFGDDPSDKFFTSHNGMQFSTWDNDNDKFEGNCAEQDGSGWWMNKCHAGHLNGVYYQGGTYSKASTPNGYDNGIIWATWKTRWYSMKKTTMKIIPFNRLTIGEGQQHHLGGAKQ
T1 sequence (P02671 20-629): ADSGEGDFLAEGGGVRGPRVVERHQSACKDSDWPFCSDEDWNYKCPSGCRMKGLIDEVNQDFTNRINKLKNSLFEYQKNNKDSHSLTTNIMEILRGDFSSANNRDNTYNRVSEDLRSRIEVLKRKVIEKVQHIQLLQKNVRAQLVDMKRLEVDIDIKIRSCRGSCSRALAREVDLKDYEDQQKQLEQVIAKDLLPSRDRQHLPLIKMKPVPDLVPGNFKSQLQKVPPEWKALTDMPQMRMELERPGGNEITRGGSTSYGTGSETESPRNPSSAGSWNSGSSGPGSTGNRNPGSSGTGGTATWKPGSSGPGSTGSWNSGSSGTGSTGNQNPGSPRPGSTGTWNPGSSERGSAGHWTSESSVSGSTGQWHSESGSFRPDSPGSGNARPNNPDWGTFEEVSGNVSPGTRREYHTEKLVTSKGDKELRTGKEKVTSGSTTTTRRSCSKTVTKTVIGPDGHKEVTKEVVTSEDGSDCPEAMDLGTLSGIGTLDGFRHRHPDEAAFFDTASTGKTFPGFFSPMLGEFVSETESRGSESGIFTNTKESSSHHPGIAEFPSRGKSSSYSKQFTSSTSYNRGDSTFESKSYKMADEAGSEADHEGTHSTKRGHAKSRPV
Kind of experiment: Western blot of fusion proteins for fibrinogen binding. To be noted: His-tagged fusion proteins separated by SDS-PAGE, blotted, probed with human fibrinogen. An excerpt:
The fibrinogen binding activity of the three proteins encoded by different constructs are indicated below the schematic FbsA drawing.
The fusion proteins were size-separated by SDS-PAGE, transferred onto a nitrocellulose membrane and tested for fibrinogen binding by Western blotting. Bound fibrinogen was detected with rabbit anti-fibrinogen antibodies, followed by peroxidase-labelled goat anti-rabbit antibodies, and visualized by chemiluminescence. PabC and Gbs0851: full-length fusion proteins; PabC-N: N-terminal 388 amino acids of PabC; PabC-C: C-terminal 222 amino acids of PabC. (C) Identification of the FbsA and PabC-binding sites within human fibrinogen by Western blot analysis. […] Bound fusion proteins were detected with mouse anti-HisTag antibodies, followed by peroxidase-conjugated goat anti-mouse IgG fab fragments and visualized by chemiluminescence. […]
Membranes that had been blocked overnight were incubated for 1 h with 2 μg/ml of human fibrinogen. […] After three washes with PBST and two washes with PBS, bound fibrinogen was detected by chemiluminescence using the ECL-kit (Amersham/Pharmacia). In control experiments, no cross-reactivity of the used antibodies with the immobilized proteins and peptides was detected.
In general terms: Immunoblotting shows a protein as a band on a membrane.

For “GNVLERRQRDAENRSQ ({Biotin-Ahx}-GNVLERRQRDAENRSQ-NH2; SMILES CC(C)C[C@H](NC(=O)[C@@H](NC(=O)[C@H](CC(N)=O)NC(=O)CNC(=O)CCCCCNC(=O)CCCC[C@@H]1SC[C@@H]2NC(=O)N[C@@H]21)C(C)C)C(=O)N[C@@H](CCC(=O)O)C(=O)N[C@@H](CCCNC(=N)N)C(=O)N[C@@H](CCCNC(=N)N)C(=O)N[C@@H](CCC(N)=O)C(=O)N[C@@H](CCCNC(=N)N)C(=O)N[C@@H](CC(=O)O)C(=O)N[C@@H](C)C(=O)N[C@@H](CCC(=O)O)C(=O)N[C@@H](CC(N)=O)C(=O)N[C@@H](CCCNC(=N)N)C(=O)N[C@@H](CO)C(=O)N[C@@H](CCC(N)=O)C(N)=O; listed as Streptococcus agalactiae) [wild type peptide]”, the “reactivity of biotinylated peptides with IgA and IgG antibodies of patient sera” value in experiment [1] was “less well recognized by all sera”.
On to “GNVLERAQRDAENRSQ ({Biotin-Ahx}-GNVLERAQRDAENRSQ-NH2; SMILES CC(C)C[C@H](NC(=O)[C@@H](NC(=O)[C@H](CC(N)=O)NC(=O)CNC(=O)CCCCCNC(=O)CCCC[C@@H]1SC[C@@H]2NC(=O)N[C@@H]21)C(C)C)C(=O)N[C@@H](CCC(=O)O)C(=O)N[C@@H](CCCNC(=N)N)C(=O)N[C@@H](C)C(=O)N[C@@H](CCC(N)=O)C(=O)N[C@@H](CCCNC(=N)N)C(=O)N[C@@H](CC(=O)O)C(=O)N[C@@H](C)C(=O)N[C@@H](CCC(=O)O)C(=O)N[C@@H](CC(N)=O)C(=O)N[C@@H](CCCNC(=N)N)C(=O)N[C@@H](CO)C(=O)N[C@@H](CCC(N)=O)C(N)=O) [peptide 5]”, for which, in experiment [1], the “reactivity of biotinylated peptides with IgA and IgG antibodies of patient sera” value was “less well recognized by all sera”.

B1: FbsA-19: hexahistidyl-tagged FbsA protein from S. agalactiae 6313 with 19 repeats, devoid of signal peptide and membrane-spanning region (protein)
chain: MDSVGNQSQGNVLERRQRDAENRSQGNVLERRQRDVENKSQGNVLERRQRDAENKSQGNVLERRQRDAENRSQGNVLERRQRDAENRSQGNVLERRQRDAENRSQGNVLERRQRDAENRSQGNVLERRQRDAENRSQGNVLERRQRDVENKSQGNVLERRQRDAENKSQGNVLERRQRDAENRSQGNVLERRQRDAENRSQGNVLERRQRDAENRSQGNVLERRQRDAENRSQGNVLERRQRDAENRSQGNVLERRQRDAENRSQGNVLERRQRDAENRSQGNVLERRQRDAENRSQGNVLERRQRDAENKSQVGQLIGKNPLLSKSIISRENNHSSQGDSNKQSFSKKVSQVTNVANRPMLTNNSRTISVINKLPKTGDDQNV
modifications: left off: small tags and cut ends
notes: hexahistidyl-tagged FbsA protein from S. agalactiae 6313 with 19 repeats, devoid of signal peptide and membrane-spanning region
For B1, in the experiment with A549 cells [2], the “adherence of S. agalactiae 6313 to A549 cells after pre-treatment of the cells” value is reported as “substantially inhibited” and the “invasion of A549 cells by S. agalactiae 6313 after pre-treatment of the cells” value is given as “substantially inhibited”. In addition, in the experiment with A549 cells [3], the “binding of protein-coated latex beads to A549 cells” value is reported as “in high numbers” and the “internalization of protein-coated latex beads into A549 cells” value was “observed rather rarely”. Besides, in the experiment on GBS 6313, the “inhibition of binding of 125I-labelled fibrinogen to GBS 6313” value is recorded as “substantially inhibited”. Besides, the “fibrinogen binding in Western blot” value in the experiment with human fibrinogen is “binding to human fibrinogen”.
